Assay results reported in US20110002929A1 (Ablynx, published 2011).
Changes are numbered by the printed parent chain. Like-named read-outs stand apart in the source and are kept apart here. One block for each binder: values may come before it.

Columns and labels:
human RANK-L [1] = biological target: T1, human RANK-L (human, UniProt O14788 140-317, limits assumed); test: cell-based or functional assay
T1 sequence (looked up): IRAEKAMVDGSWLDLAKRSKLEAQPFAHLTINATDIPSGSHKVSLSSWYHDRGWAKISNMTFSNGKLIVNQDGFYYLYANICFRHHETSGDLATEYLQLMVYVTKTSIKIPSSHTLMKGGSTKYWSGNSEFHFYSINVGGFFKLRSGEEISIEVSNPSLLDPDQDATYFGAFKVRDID

[2] = biological target: T2, human RANK-L, full length, membrane-bound, expressed on HEK293T cells (human, UniProt O14788 1-317); test: FACS, HEK293T with human RANK-L, 16 pM Nanobody
T2 construct: whole, on cells; also called hRANK-L
T2 sequence (looked up): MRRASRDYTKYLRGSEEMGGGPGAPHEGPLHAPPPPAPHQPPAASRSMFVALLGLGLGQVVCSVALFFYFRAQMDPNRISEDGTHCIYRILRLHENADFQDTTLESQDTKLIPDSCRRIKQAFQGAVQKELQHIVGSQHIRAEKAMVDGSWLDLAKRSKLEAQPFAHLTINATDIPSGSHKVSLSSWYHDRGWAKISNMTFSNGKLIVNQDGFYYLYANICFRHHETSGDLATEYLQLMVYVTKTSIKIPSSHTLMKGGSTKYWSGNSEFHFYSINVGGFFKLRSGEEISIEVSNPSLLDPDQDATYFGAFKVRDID
Description: (§1) Human embryonic kidney cells (HEK293T) were grown in Dulbecco's modified Eagles's medium supplemented with 10% fetal bovine serum (FBS), […] L-glutamine, 0.4 mM sodium pyruvate. […] After 48 hours, transfected cells were subjected to FACS analysis. […] Then cells were washed three times with FACS buffer. Bound Nanobodies were detected by subsequent incubations of a primary mouse anti Myc antibody (30 min at 4° C. (2 μg/ml)) and a second incubation with goat anti mouse-Phycoerythrin (PE) (Jackson Laboratories) for another 30 min at 4° C. Finally, after washing, the cells were resuspended in PBS+10% FBS+TO-PRO®-3 (5 nM) (Molecular Probes®, Invitrogen, Merelbeke, Belgium) and cell surface fluorescence expressed as mean PE fluorescence, was measured using flow cytometry.

[3] = biological target: T2, human RANK-L, full length, …; test: FACS, HEK293T with human RANK-L, 400 pM Nanobody
Description: as §1

human RANK-L [4] = biological target: T1, human RANK-L; test: SPR Biacore 3000, hRANK-L on CM5, 100 nM Nanobody; only indicative (one concentration)
Description: Binding kinetics of the humanized versions of Nanobodu RANL13 were also analysed by Surface Plasmon Resonance (Biacore 3000). […] Nanobody binding was assessed at one concentration (100 nM). Each Nanobody was injected for 4 minutes at a flow rate of 45 μl/min to allow binding to chip-bound antigen. Next, binding buffer without Nanobody was sent over the chip at the same flow rate to allow spontaneous dissociation of bound Nanobody.

mouse RANK-L = biological target: T3, mouse RANK-L (mouse, UniProt O35235 158-316, limits assumed); test: ELISA, set-up as for human RANK-L
T3 construct: also called murine RANK-L
T3 sequence (looked up): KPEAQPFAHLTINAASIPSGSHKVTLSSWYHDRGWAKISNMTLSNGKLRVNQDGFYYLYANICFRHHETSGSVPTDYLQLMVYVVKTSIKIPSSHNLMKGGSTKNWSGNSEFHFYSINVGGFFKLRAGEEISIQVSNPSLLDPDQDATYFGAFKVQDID
Description: Therefore 2 μg/ml neutravidin was coated overnight at 4° C. The plates were washed 5 times with 300 μl PBS and then blocked with […] 1% casein/PBS for 2 hours at room temperature. […] After extensive washing with PBS, varying concentrations of Nanobodies starting from 500 nM to 160 pM diluted in 1% casein/PBS were added to the wells and the plates were incubated for 1 hour at room temperature. Bound Nanobodies were detected by subsequent incubations of a primary mouse anti-myc antibody and a secondary anti mouse-HRP conjugate (DAKO, Glostrup, Denmark) and using TMB-H2O2 (Pierce, Rockford, Ill., USA) substrate cocktail. The reaction was stopped with H₂SO₄ and the OD was read at 450 nm.

human RANK-L [5] = biological target: T1, human RANK-L; test: AlphaScreen, biotin-hRANK-L / RANK-huFc beads
Description: To this mixture, the RANK acceptor beads and the streptavidin donor beads were added and further incubated for 1 hour at room temperature. Fluorescence was measured by reading plates on the EnVision Multilabel Plate Reader (Perkin Elmer) using an excitation wavelength of 680 nm and an emission wavelength of 520 nm.

[6] = biological target: T2, human RANK-L, full length, …; test: FACS, HEK293T with human RANK-L, 2000 pM Nanobody
Description: as §1

[7] = biological target: T4, cynomolgus RANK-L, full length, membrane-bound, expressed on HEK293T cells (cynomolgus monkey, UniProt A0A7N9DBU4 1-317); test: FACS, HEK293T with cynomolgus RANK-L, 400 pM Nanobody
T4 construct: whole, on cells; also called cyno RANK-L
T4 sequence: T2 sequence (looked up) with A32T, F68L, G83S, D174N, S177T, I291V
Description: as §1

[8] = biological target: T2, human RANK-L, full length, …; test: FACS, HEK293T with human RANK-L, 80 pM Nanobody
Description: as §1

human RANK-L [9] = biological target: T1, human RANK-L; test: ELISA (ED50), biotin-hRANK-L on neutravidin
Summary of the method: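 Nanobodies at 500 nM to 160 pM in 1% casein/PBS incubated 1 h at room temperature; binding detected via anti-myc then anti-mouse-HRP with TMB, OD 450 nm.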

human RANK-L [10] = biological target: T1, human RANK-L; test: AlphaScreen, biotin-hRANK-L / RANK-huFc beads; remark: listed apart in the source

RANK-L induced NF-kappaB activation (luciferase reporter, HEK293T cells), IC50 (human RANK-L [1]): 15.2 nM | PE mean fluorescence [2]: 218 | PE mean fluorescence [3]: 2330 | Kd (human RANK-L [4]): 0.18 nM | kon (human RANK-L [4]): 310000 M⁻¹ s⁻¹ | binding result (mouse RANK-L): no binding (tested: 500 nM to 160 pM) | IC50 (human RANK-L [5]): 0.146 nM | PE mean fluorescence [6]: 7630 | PE mean fluorescence [7]: 3490 | PE mean fluorescence [8]: 649 | EC50 (human RANK-L [9]): 0.242 nM | IC50 (human RANK-L [10]): 0.253 nM
B1: RANKL18 (VHH, not shown: small tags and cut ends)
VHH: EVQLVESGGGLVQAGGSLRLSCAASGRTFSRSAMGWFRQAPGKEREFVGFITGSGGTTYYGESVKGRFTISRDNAQNPVYLQMNSLKPEDTAVYYCGVYRRTYISSTYSESSEYDYWGQGTQVTVSS

RANK-L induced NF-kappaB activation (luciferase reporter, HEK293T cells), IC50 (human RANK-L [1]): 6.21 nM | PE mean fluorescence [2]: 499 | PE mean fluorescence [3]: 5220 | Kd (human RANK-L [4]): 0.5 nM | kon (human RANK-L [4]): 500000 M⁻¹ s⁻¹ | binding result (mouse RANK-L): no binding (tested: 500 nM to 160 pM) | IC50 (human RANK-L [5]): 0.185 nM | PE mean fluorescence [6]: 13900 | PE mean fluorescence [7]: 4110 | PE mean fluorescence [8]: 1530 | EC50 (human RANK-L [9]): 0.226 nM | IC50 (human RANK-L [10]): 0.12 nM
B2: RANKL13 (VHH, not shown: small tags and cut ends)
VHH: EVQLVESGGGLVQAGGSLRLSCAASGRTFRSYPMGWFRQAPGKEREFVASITGSGGSTYYADSVKGRFTISRDNAKNTVYLQMNSLRPEDTAVYSCAAYIRPDTYLSRDYRKYDYWGQGTQVTVSS
